# Measurements from the Immune Epitope Database (IEDB).
# How the values were obtained:
# HLA-B*15:03 = assay: IEDB peptide-MHC binding, purified MHC/competitive/radioactivity; filed as Kd, often an IC50 or EC50 that approximates it; ≥ and ≤ were set here for values at or beyond the usual limits of such assays
# HLA-A*02:03 = assay: as above
# HLA-A*02:01 [1] = assay: as above
# HLA-A*02:01 [2] = assay: IEDB peptide-MHC binding, purified MHC/competitive/fluorescence; filed as Kd, often an IC50 or EC50 that approximates it; ≥ and ≤ were set here for values at or beyond the usual limits of such assays
# HLA-B*48:01 = assay: IEDB peptide-MHC binding, purified MHC/direct/fluorescence; filed as Kd, often an IC50 or EC50 that approximates it; ≥ and ≤ were set here for values at or beyond the usual limits of such assays
# HLA-B*15:01 [3] = assay: IEDB peptide-MHC binding, purified MHC/competitive/radioactivity; filed as Kd, often an IC50 or EC50 that approximates it; ≥ and ≤ were set here for values at or beyond the usual limits of such assays
# HLA-A*26:01 = assay: IEDB peptide-MHC binding, purified MHC/competitive/fluorescence; filed as Kd, often an IC50 or EC50 that approximates it; ≥ and ≤ were set here for values at or beyond the usual limits of such assays; details: source organism: Escherichia coli str. K-12 substr. MG1655
# HLA-B*40:01 [4] = assay: IEDB peptide-MHC binding, purified MHC/competitive/radioactivity; filed as Kd, often an IC50 or EC50 that approximates it; ≥ and ≤ were set here for values at or beyond the usual limits of such assays
# HLA-A*69:01 = assay: IEDB peptide-MHC binding, purified MHC/direct/fluorescence; filed as Kd, often an IC50 or EC50 that approximates it; ≥ and ≤ were set here for values at or beyond the usual limits of such assays; details: source organism: Yellow fever virus
# HLA-A*02:01 [5] = assay: as above; details: source organism: Yellow fever virus
# HLA-B*46:01 = assay: as above; details: source organism: Yellow fever virus
# HLA-A*01:01 = assay: as above; details: source organism: Yellow fever virus
# HLA-B*15:01 [6] = assay: as above; details: source organism: Yellow fever virus
# HLA-B*07:02 [7] = assay: as above; details: source organism: Yellow fever virus
# HLA-A*03:01 = assay: as above; details: source organism: Yellow fever virus
# HLA-B*57:01 = assay: as above; details: source organism: Yellow fever virus
# HLA-B*44:02 [8] = assay: as above; details: source organism: Yellow fever virus
# HLA-B*40:01 [9] = assay: as above; details: source organism: Yellow fever virus
# HLA-B*58:01 = assay: as above; details: source organism: Yellow fever virus
# HLA-B*51:01 = assay: IEDB peptide-MHC binding, purified MHC/competitive/radioactivity; filed as Kd, often an IC50 or EC50 that approximates it; ≥ and ≤ were set here for values at or beyond the usual limits of such assays
# HLA-A*32:01 = assay: as above
# HLA-B*08:01 = assay: as above
# HLA-B*53:01 = assay: as above
# HLA-B*07:02 [10] = assay: as above
# HLA-B*27:05 = assay: IEDB peptide-MHC binding, purified MHC/direct/fluorescence; filed as Kd, often an IC50 or EC50 that approximates it; ≥ and ≤ were set here for values at or beyond the usual limits of such assays; details: source organism: Orthohantavirus hantanense
# HLA-B*44:03 = assay: IEDB peptide-MHC binding, purified MHC/competitive/radioactivity; filed as Kd, often an IC50 or EC50 that approximates it; ≥ and ≤ were set here for values at or beyond the usual limits of such assays; details: source organism: Dengue virus 3 Martinique/1243/1999
# HLA-B*44:02 [11] = assay: as above; details: source organism: Dengue virus 3 Martinique/1243/1999
# HLA-A*30:01 = assay: as above; details: source organism: Vaccinia virus WR
# [12] = source organism: Vaccinia virus WR
# [13] = source organism: Dengue virus 2 Jamaica/1409/1983
# [14] = source organism: Vaccinia virus Copenhagen
# [15] = source organism: Dengue virus 3 Martinique/1243/1999
# [16] = source organism: Dengue virus 3 Sri Lanka/1266/2000
sequence,measurement,setting,value
AAFEFINSL,Kd,HLA-B*15:03; [12],4.55 nM
ALKRAQSEL,Kd,HLA-A*02:03; source organism: Homo sapiens,23.3 nM
same,Kd,HLA-A*02:01 [1]; source organism: Homo sapiens,≥ 41800 nM
AMLNGLIYV,Kd,HLA-A*02:01 [2]; source organism: Variola virus,1.3 nM
AQAELDAAF,Kd,HLA-B*48:01; source organism: Salmonella enterica subsp. enterica serovar Paratyphi A str. ATCC 9150,696 nM
AQVTCLKFL,Kd,HLA-B*48:01; source organism: Cryptosporidium parvum Iowa II,1670 nM
CSAPPGQHM,Kd,HLA-B*15:01 [3]; [12],52.7 nM
same,Kd,HLA-B*15:03; [12],24 nM
DDVARAWSL,Kd,HLA-B*48:01; source organism: Mycobacterium tuberculosis str. Haarlem,≥ 20000 nM
DVAKIEAPL,Kd,HLA-A*26:01,324 nM
EEEEQTLTIL,Kd,HLA-B*40:01 [4]; [13],10.4 nM
ERWFVRNPF,Kd,HLA-A*69:01,≥ 20000 nM
same,Kd,HLA-B*48:01; source organism: Yellow fever virus,≥ 20000 nM
same,Kd,HLA-A*02:01 [5],≥ 20000 nM
same,Kd,HLA-B*46:01,≥ 20000 nM
same,Kd,HLA-A*01:01,≥ 20000 nM
same,Kd,HLA-B*15:01 [6],≥ 20000 nM
same,Kd,HLA-B*07:02 [7],≥ 20000 nM
same,Kd,HLA-A*03:01,≥ 20000 nM
same,Kd,HLA-B*57:01,≥ 20000 nM
same,Kd,HLA-B*44:02 [8],≥ 20000 nM
same,Kd,HLA-B*40:01 [9],≥ 20000 nM
same,Kd,HLA-B*58:01,≥ 20000 nM
FLTIPPTAGI,Kd,HLA-A*02:03; [13],9.79 nM
same,Kd,HLA-B*51:01; [13],343 nM
FQVVNPHLL,Kd,HLA-B*15:03; [12],40.3 nM
FSGSFASIF,Kd,HLA-B*15:03; [12],0.318 nM
GLQSQQGHL,Kd,HLA-A*02:01 [1]; source organism: Hepatitis B virus subtype ayw,≥ 5000 nM
GLTYSQLMT,Kd,HLA-A*02:01 [1]; source organism: Lassa virus Josiah,12500 nM
HMAYSFQTF,Kd,HLA-B*15:01 [3]; [14],0.246 nM
same,Kd,HLA-A*32:01; [14],16.3 nM
same,Kd,HLA-B*08:01; [14],733 nM
same,Kd,HLA-B*15:03; [14],0.279 nM
IPTAMAFHL,Kd,HLA-B*53:01; [13],49.4 nM
same,Kd,HLA-B*07:02 [10]; [13],83.1 nM
KRIAPMLYK,Kd,HLA-B*48:01; source organism: Orthohantavirus hantanense,≥ 20000 nM
same,Kd,HLA-B*27:05,40.7 nM
LEFFMMVLL,Kd,HLA-B*44:03,2640 nM
same,Kd,HLA-B*44:02 [11],10100 nM
same,Kd,HLA-A*32:01; [15],2040 nM
same,Kd,HLA-B*40:01 [4]; [15],13.1 nM
LEFFMMVLLI,Kd,HLA-B*44:03,9210 nM
same,Kd,HLA-B*40:01 [4]; [15],12200 nM
LEFIHSQGF,Kd,HLA-B*15:03; [12],107 nM
LHAVYSIVF,Kd,HLA-B*15:03; [12],8.81 nM
LIGARRTSF,Kd,HLA-A*30:01,563 nM
same,Kd,HLA-B*15:01 [3]; [12],40.1 nM
same,Kd,HLA-A*32:01; [12],5820 nM
same,Kd,HLA-B*08:01; [12],1.5 nM
same,Kd,HLA-B*15:03; [12],176 nM
LIRNKRLSL,Kd,HLA-A*30:01,696 nM
same,Kd,HLA-B*15:01 [3]; [12],455 nM
same,Kd,HLA-A*32:01; [12],≥ 77800 nM
same,Kd,HLA-B*08:01; [12],0.783 nM
same,Kd,HLA-B*15:03; [12],215 nM
LLFLEDVEP,Kd,HLA-A*02:01 [2]; source organism: Horsepox virus,≥ 20000 nM
LPETMETLL,Kd,HLA-B*53:01; [15],3580 nM
LPLFIFSLK,Kd,HLA-B*51:01; [15],13100 nM
LPMTVAAMGV,Kd,HLA-B*07:02 [10]; [16],50.7 nM
same,Kd,HLA-B*51:01; [16],633 nM
LPVWLAYRV,Kd,HLA-B*53:01; [13],200 nM
same,Kd,HLA-B*51:01; [13],130 nM
